This note sets out measurements from US20120122125A1 (AbbVie / Abbott, published 2012).

In general, Kd refers to the equilibrium constant for the complex coming apart. By koff is commonly meant the rate constant with which the complex falls apart. As usually defined, the kon is the rate constant with which the complex forms.

In test [1] the target is T1, Chagas FRA antigen (Trypanosoma cruzi).
T1 construct: also called FRA-domain; recombinant FRA antigen
T1 chain: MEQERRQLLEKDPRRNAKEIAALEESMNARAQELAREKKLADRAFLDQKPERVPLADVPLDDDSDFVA
Nature of the test: SPR, BIAcore 2000; murine mAb captured on rabbit anti-mouse IgG, FRA injected 0-200 nM.

For test [2], the target named is Chagas recombinant antigen FP6 (Trypanosoma cruzi). Put plainly: SPR, BIAcore 2000; murine mAb captured on rabbit anti-mouse IgG, FP6 injected 0-200 nM.
The target in test [3] is T2, Chagas FP10 recombinant antigen (Trypanosoma cruzi).
T2 construct: also called T. cruzi antigen FP10
T2 chain: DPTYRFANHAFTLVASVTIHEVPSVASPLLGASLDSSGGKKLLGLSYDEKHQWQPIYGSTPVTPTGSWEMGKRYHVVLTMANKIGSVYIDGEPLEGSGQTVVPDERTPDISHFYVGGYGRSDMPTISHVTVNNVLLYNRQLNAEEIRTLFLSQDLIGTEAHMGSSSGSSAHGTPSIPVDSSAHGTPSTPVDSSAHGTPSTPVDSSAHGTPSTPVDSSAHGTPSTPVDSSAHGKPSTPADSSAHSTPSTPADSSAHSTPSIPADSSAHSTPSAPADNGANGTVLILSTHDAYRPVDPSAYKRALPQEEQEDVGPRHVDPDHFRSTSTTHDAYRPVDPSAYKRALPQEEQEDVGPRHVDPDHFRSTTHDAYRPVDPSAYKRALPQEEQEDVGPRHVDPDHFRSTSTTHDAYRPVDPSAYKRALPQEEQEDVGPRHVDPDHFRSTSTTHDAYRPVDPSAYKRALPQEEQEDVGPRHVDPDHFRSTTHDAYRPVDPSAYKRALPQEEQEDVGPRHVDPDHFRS
Nature of the test: SPR, BIAcore 2000; murine mAb captured on rabbit anti-mouse IgG, FP10 injected. In general terms: In SPR one partner is held on a chip, and binding of the other changes the refractive index at the surface.

For test [4], the target named is T3, Chagas FP3 recombinant antigen (Trypanosoma cruzi).
T3 construct: also called T. cruzi antigen FP3; not shown: His6 tag at the amino end, from the pET vector
T3 chain: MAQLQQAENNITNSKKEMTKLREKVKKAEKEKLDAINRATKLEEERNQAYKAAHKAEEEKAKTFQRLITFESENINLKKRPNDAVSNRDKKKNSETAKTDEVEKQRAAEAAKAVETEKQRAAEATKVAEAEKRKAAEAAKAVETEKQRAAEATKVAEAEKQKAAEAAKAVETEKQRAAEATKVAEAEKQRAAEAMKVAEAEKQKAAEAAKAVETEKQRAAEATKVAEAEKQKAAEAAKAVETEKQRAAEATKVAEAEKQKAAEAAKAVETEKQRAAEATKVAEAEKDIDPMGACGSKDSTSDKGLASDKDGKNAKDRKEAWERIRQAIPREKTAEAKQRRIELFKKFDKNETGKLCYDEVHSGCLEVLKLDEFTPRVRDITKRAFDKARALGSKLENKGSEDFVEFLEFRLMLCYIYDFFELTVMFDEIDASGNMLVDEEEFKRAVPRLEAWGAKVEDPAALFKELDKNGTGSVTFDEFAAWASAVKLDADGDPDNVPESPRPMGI
Nature of the test: SPR, BIAcore 2000; murine mAb captured on rabbit anti-mouse IgG, FP3 injected.

For test [5], the target named is T3, Chagas FP3 recombinant antigen. Put plainly: SPR, BIAcore 2000; His6-tagged FP3 captured on anti-His4, chimeric antibody injected.
Test [6] concerns the target T2, Chagas FP10 recombinant antigen. Put plainly: SPR, BIAcore 2000; His6-tagged FP10 captured on anti-His4, chimeric antibody injected 0-300 nM.
Test [7] shares this target. Put plainly: SPR, BIAcore 2000; murine mAb captured on rabbit anti-mouse IgG, FP10 injected 0-200 nM.
In test [8] the target is T3, Chagas FP3 recombinant antigen. Put plainly: SPR, BIAcore 2000; His6-tagged FP3 captured on anti-His4, chimeric antibody injected 0-300 nM.
For test [9], the target named is T2, Chagas FP10 recombinant antigen. Nature of the test: SPR, BIAcore 2000; His6-tagged FP10 captured on anti-His4, chimeric antibody injected.
The target of the next test is T4, Pep2 antigen (Trypanosoma cruzi).
T4 construct: The form of Pep2 coated in the anti-Pep2 microtiter EIA is not described; also called TcF Pep2 peptide
T4 peptide: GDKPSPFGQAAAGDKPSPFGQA
Nature of the test: SPR, BIACORE; chimeric antibody from transient COS 7L expression; the antigen is not given.

Test [10] addresses Chagas TcF recombinant antigen (Trypanosoma cruzi). Put plainly: SPR, BIAcore 2000; chimeric antibody captured on goat anti-human IgG Fc, TcF injected 0-100 nM.
In test [11] the target is T1, Chagas FRA antigen. Nature of the test: SPR, BIAcore 2000; murine mAb captured on rabbit anti-mouse IgG, FRA injected.
Test [12] addresses Chagas TcF recombinant antigen (Trypanosoma cruzi). Nature of the test: SPR, BIAcore 2000; murine mAb captured on rabbit anti-mouse IgG, TcF injected 0-200 nM.
Test [13] deals with T3, Chagas FP3 recombinant antigen. Put plainly: SPR, BIAcore 2000; murine mAb captured on rabbit anti-mouse IgG, FP3 injected 0-200 nM.

Substitutions are numbered along the chain they refer to.

B1: murine anti-Chagas monoclonal antibody 8-367-171 (FRA) (antibody, V domains shown)
VH: EVQLQQSGAELVKPGASVKLSCTASGFNIKDTYMHWVKQRPEQGLEWIGRIDPANGNTKYDPKFQGKATITTDTSSNTAYLQLSSLTSEDTAVYYCATSYYGNYVAYWGHGTLVTVSA
VL: DIQMDQSPSSLSASLGDTITITCHASQNINVWLSWYQQKPGNIPKLLIYKASNLHTGVPSRFSGSGSGTGFTLTISSLQPEDIATYYCQQGQSYPLTFGSGRKLEIK
notes: Mouse hybridoma mAb; captured by anti-mouse IgG
In the test with Chagas FRA antigen [1], B1 showed a Kd of 37 nM, a koff of 0.13 s⁻¹ and a kon of 3.6e+06 M⁻¹ s⁻¹. In addition, in [2], the Kd was found to be 5.2 nM, the koff was 0.0079 s⁻¹ and the kon stood at 1.5e+06 M⁻¹ s⁻¹. In addition, in test [3], the binding result is reported as “no binding (tested: 0 to 200 nM antigen)”. For the same molecule, the binding result in test [4] was “no binding (tested: 0 to 200 nM antigen)”.

B2: recombinant chimeric (mouse-human) anti-Chagas monoclonal antibody 10-745-140 (FP10) (antibody, V domains shown)
VH: QVQLQQPGAELVKPGASVKMSCKASGYTFTSYWVHWVKQRPGQGLEWIGVIDPSDSYTSYNQKFKGKATLTVDTSSSTAYMQLSSLTSEDSAVYYCTRHYDFDSWYFDVWGAGTTVTVSS
VL: DVVMTQTPLSLPVSLGDQASISCRSSQSLVHSNGNTYLHWYLQKPGQSPKLLIYKVSNRFSGVPDRFSGSGSGTDFTLKISRVEAEDLGVYFCSQSTHVPPTFGGGTKLEIK
notes: Mouse VH and VL of hybridoma HBFP10 joined to human IgG1 (z, non-a) and human kappa constant regions; the summary and the claims swap them; also called Chimeric Chagas Ab 10-745-140; Chagas FP10 10-745-3796
With B2, the binding result in test [5] is listed as “no binding (tested: 0 to 300 nM antibody)”. For the same molecule, in [6], the Kd worked out at 2.9 nM, the koff was 0.00036 s⁻¹ and the kon came out at 120000 M⁻¹ s⁻¹.

B3: murine anti-Chagas monoclonal antibody 10-745-140 (FP10) (antibody, V domains shown)
VH: B2 VH
VL: B2 VL
notes: Mouse hybridoma mAb; captured by anti-mouse IgG; also called Murine Chagas Ab 10-745-140; Chagas 10-745-140
On to B3, for which, in [7], the Kd was 1.9 nM, the koff turned out to be 0.00022 s⁻¹ and the kon is 110000 M⁻¹ s⁻¹.

B4: recombinant chimeric (mouse-human) anti-Chagas monoclonal antibody 12-392-150 (FP3) (antibody, V domains shown)
VH: DVQLVESGGGLVQPGGSRKLSCAASGFTFSVFGMHWVRQAPEKGLEWVAYISSGSTIIYYADTVKGRFTISRDNPKNTLFLQMTGLRSEDTAMYYCARPLYYDYDDYAMDYWGQGTSVTVSS
VL: YIVMSQSPSSLAVSAGEKVTMSCKSSQSLLNSRTRKNHLAWYQQKPGQSPKLLIYWASTRESGVPDRFTGSGSGTDFALTISSVQAEDLAVYFCKQSYNLYTFGAGTKLELK
notes: Mouse VH and VL of hybridoma HBFP3 joined to human IgG1 (z, non-a) and human kappa constant regions; the summary and the claims swap them; also called Chimeric Chagas Ab 12-392-150; Chagas FP3 12-392-150CHO2580-104
In the case of B4, in test [8], the Kd amounted to 0.14 nM, the koff turned out to be 0.00038 s⁻¹ and the kon was determined as 2.7e+06 M⁻¹ s⁻¹. For the same molecule, the binding result in [9] is listed as “no binding (tested: 0 to 300 nM antibody)”.

B5: recombinant chimeric (mouse-human) anti-Chagas monoclonal antibody 9-638-132 (Pep2 epitope in TcF and FP6) (antibody, V domains shown)
VH: QVQLQQPGAELVRPGASVKLSCKASGYTFTSYWMNWVKLRPGQGLEWIGMIDPSDSETYYDQVFKDKATLTVDKSSSTAYMHLSSLTSEDSAVYYCARWITTDSYTMDYWGQGTSVTVSS
VL: B4 VL with Y1D, K18Q, L30F, H38Y, A78T, F93Y, Y101L
notes: Mouse VH and VL of hybridoma HBPep2 joined to human IgG1 (z, non-a) and human kappa constant regions; the summary and the claims swap them; also called Chimeric Chagas Ab 9-638-132; Chagas Pep2 9-638-1928
B5: the figures for the Kd (with Pep2 antigen; in [10]) were approximately 2.6 nM and 4.1 nM, respectively. The koff in test [10] was 0.017 s⁻¹. Moreover, the association rate constant (kon) in [10] was found to be 4e+06 M⁻¹ s⁻¹. The binding result in test [9] and in test [5] was “no binding (tested: 0 to 300 nM antibody)” in each case.

B6: murine anti-Chagas monoclonal antibody 9-638-132 (Pep2 epitope in TcF and FP6) (antibody, V domains shown)
VH: B5 VH
VL: B4 VL with Y1D, K18Q, L30F, H38Y, A78T, F93Y, Y101L
notes: Mouse hybridoma mAb; captured by anti-mouse IgG; also called Murine Chagas Ab 9-638-132; hybrid 9-638
Take B6: the binding result in the test with Chagas FRA antigen [11] is “no binding (tested: 0 to 200 nM antigen)”. Also, in test [12], the Kd was 5.7 nM, the koff was found to be 0.012 s⁻¹ and the kon worked out at 2.1e+06 M⁻¹ s⁻¹. In addition, in test [4], the binding result is on record as “no binding (tested: 0 to 200 nM antigen)”.

B7: murine anti-Chagas monoclonal antibody 12-392-150 (FP3) (antibody, V domains shown)
VH: B4 VH
VL: B4 VL
notes: Mouse hybridoma mAb; captured by anti-mouse IgG; also called Murine Chagas Ab 12-392-150; hybrid 12-392
As to B7, the binding result with Chagas FRA antigen [11] is on record as “no binding (tested: 0 to 200 nM antigen)”. For the same molecule, in test [13], the Kd is 0.08 nM, the koff was found to be 5e-05 s⁻¹ and the kon was determined as 560000 M⁻¹ s⁻¹. In addition, in test [3], the binding result is given as “no binding (tested: 0 to 200 nM antigen)”.
